In the nanobody polyreactivity screen of Harvey et al. (2022):

Assay: yeast display, Sf9 membrane polyspecificity reagent, FACS + sequencing; frameworks hold sequencing errors
Procedure, shortened: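 Synthetic nanobody libraries on Saccharomyces cerevisiae BJ5465 were galactose-induced for 36–48 hours, stained 1 hour at 4 °C with 10% biotinylated, detergent-solubilized Sf9 membrane reagent and enriched on streptavidin microbeads. FACS then separated cells into low and high (top ~1%) gates by anti-HA (expression) and streptavidin (reagent binding) fluorescence. Genes were colony-PCR amplified, MiSeq 2 × 250 sequenced and CDR-length filtered. A clone's polyreactivity label is that of its gate of origin.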

| Sequence | polyreactivity (PSR sort gate) |
| --- | --- |
| QVQLVESGGGLVQAGGSLRLSCAASGYIFVYNAMGWYRQAPGKERELVAAITDGGGSTYADSVKGRFTISRDNAKNTVYLQMNSLNPEDTAVYYCAARYSDTTWYVLYYYWGQGTQVTVSS | low polyreactivity |
| QVQLVQSGGGLVQAGGSLRLSCAASGRTFYRNGMGWYREAPGKDREFVAAINYRGGSTNYADSVKGRFTITRDNAKITVYLQMNSLKPEDTAVYYCATRIFRAALRFDYWGQGTQVTVSS | high polyreactivity |
| QVQLVETGGGLVQAGGSHRLSCAASGSTFDAYAMGWYRQAPGKETELVAGISIVGSTNYADSVKGRFTISRDNAKNTVYLKMNSLKPEDTAVLYCAADRDWQYSFRPSVYGYDYVYWGQGTQVTVSS | low polyreactivity |
| QVQLVESGGGLVQAGGSLRLSCAASGFTFYYYTMGWYRQAPGKERELVAAITISGGSTYYADSVKGRFTISRDNAKNTVYLQMNSLKPEDSAVYYCNADYQWYLGGYDFWGQGTQVTVSS | high polyreactivity |
| QVQLVESGGGLVQAGGSLRLSCAASGRTFYRNAMGWYRQAPGKERELVARINDGAGTYYADSVKGRFTISRDNAKNTVYLQMNSLKPEDTAVYYCADDTWGTPTPFVHYPEFEHWGQGTQVTVSS | low polyreactivity |
| QVQLVESGGGLVQAGRSLRLSCAASGYTFSPNDMGWYRQAPGKERELVATITYGGGTTYYADSVKGRFTISRDNAKNTVYLQMNSLKPEDTAVYYCAKDVPLYRAHDGYDYWGQGTQVTVSS | low polyreactivity |
| QVQLVESGGGLVQAGGSLRLSCAASGSIFDIYGMGWYRQAPGKESELFASISGGAGSTNYADSVKGRFTISRDNAKNTVYLQMNSLKPEDTAVYYCAAEVYVPDYFQHKFDVEYEYWGQGTQVTVSS | low polyreactivity |
| QVQLVESAGGLVQAGGSLRLSCAASGRTFAYNAMGWYRQAPGKERELVADITSGGSTYYADSVKWRFTISRDNAKNTVYLQMNSLKPEDTAVYYCNKLYRGGYGYWGQGTQVTVSS | high polyreactivity |
| QVQLVESVGGLVQAGGSLRLSCAASGRTFYRYAMGWYRPAPGKERELVAAITASGGSTYYADSVKGRFTISRDNAQNTVYLQMKSLKPEDTAVYYCAKGGKSRYSTWHGDYWGQGTQVTVSS | high polyreactivity |
| QVQLVESGGCLVQAGGSLRLSCAASGFIFNKYAMGWSRQATGKERELVAAISFRGGRTYYADSVKGRFTISRDNAKNTVYFQMNSLKPEDTAVYYCAAETRDYSEGYYWGQGTQVTVSS | high polyreactivity |
| QVQLVESGGGLVQAGGSLRLSCAASGITFWLYAMGWYRQAPGKERELVAGIDNGGSTTYADSVKGRFTISRDNAKNTVYLQMNILKPEDTAVYYCAATFEWDPVYPYNGFIYDYWGQGTQVTVSS | high polyreactivity |
| QVQLVESGGGLVQAGGSLRLSCAASGRTFPRYVMGWYRQAPGKERDLVAAIRRSGGSTYYADSVKGRFTISRDNAKNTVYLQMNSLKPDDTAVYYCNRVVYTYISTGSRHGRYYYWGQGTQVTVSS | high polyreactivity |
| QVQLVESGGGLVQAGGSLRLSCAASGYILRRNAMGWYRKAPGKERELVARINSSGGSTYYADSVKGRFTISRDNAKNTVYLQMNSLKPEDTAVYYCAKSYYRGRDYWGQGTQVTVSS | high polyreactivity |
| QVQLVESGGGLVQAGCSLRLSCAASGRIFYSNVMGWYRQAPGKERELVAAISGRTGGTYYADSVKGRFTISRDTAKNTVYLQMNSLKPEDTAVYYCAARVIYYYGSGPYDYWGQGTQVTVSS | low polyreactivity |
| QVQLVESGGGLVQAGGSLRLSCAASGSIFPFYAMGWYRQAPGKERELVAGISGSAGRTYYADSVKGRFTISRDNAKNTVYLQMNSLKPEDTAVYYCAAVYYSSLYDYWGQGTQVTVSS | high polyreactivity |
| QVQLVESGGGLVQAGGSLRLSCAASGITSSRYAMGLYRQAPGKVRELVAAISSSGGSTYYADSVKGRFTSSRDNAKTTVYLQLISLKPEDTAVYYCNVVSTRLAKYTFGFWGQGTQVTVSS | high polyreactivity |
| QVQLVESGGGLVQAGGSLRLSCAASGFTFSQYAMGWYRQAPGKERELVAAINSRGGSTYYADSVKGRFTISRDNAKNTVYLQINSLKPEDTAVYYCNAVISGYPYEYDYWGQGTQVTVSS | high polyreactivity |
| QVQLVESGGGLVQAEGSLRLSCAASGIIFFHNAMGWYRQAPGKERELVATISRSGGSTYYADSVKGRFTISRDNAKNTVYLQMNSLKPEDTAVYYCAARQSIFYSWTGVEYYYWGQGTQVTVSS | low polyreactivity |
| HVQLVDSGAGLVQAGGSLRLSCAASGRTFAYYAMGWYREATRKERELVAAIDSSGGSTYYADSVKGRFTISRDNAKNTVYLQMNSLKPEDTAVYYCAASYPYDRYDQGGYGYWGQGTQVTVSS | low polyreactivity |
| QVQLVETGRGLVQAGGSLRLSCAASGRIFYANAMGWYRQAPGKERELVAAISRTGGSTYYADSVKGRFTISRDNAKNTVYLQMNSLKPEDTAVYYCNALSGVYGYDDWGQGTQVTVSS | high polyreactivity |
| QVQLVESGGGLVQAGGSLRLSGAASGSTFDIYAMGWYRQPPGKESELVAAITVSGGSTYYADSVKGSFTISRDNAKNTVYLQMNSLKPEDTAVYYCNADWSGWQGWYNYWGQGTQVTVSS | low polyreactivity |
| QVQLVESGGGLVQAGGSLRLSCAASGSIFSTYAMGWYRQAPGKERELVASISRRGGSTYYADSVKGRFTISRDNAKNTVYLQMNSLKPEDTAVYYCNASGGPYRFYYWGQGTQVTVSS | low polyreactivity |

| Sequence | polyreactivity (PSR sort gate) |
| --- | --- |
| QVQLVESGGGLVQAGGSLRLSCAASGSTFGQYALGWYRQAPGKERELVATISSGSTYYADSVKGRFTISRDNAKNTVYLQMNSLKPEDTAVYYCAARRIHTTSSRGYYWGQGSQVTVSS | high polyreactivity |
| QVQLVESGGGLVQAGGSLRLSCAASGITFYANAMGWYRQAPGKERELVATISYRGGSTYYADSVKGRFTISRDNAKNTVYLQMNSLKPEDTAVYYCAARRRRTSNTRVEHNYWGQGTQVTVSS | high polyreactivity |
| QVQLVESGGGLVQAGGSLRLSCAASGITFFLYAMGWYRQAPGKERELVAVISASGGSTYYADSVKGRFTISRDNAKNTVYLQMNSLKPDDTAVYYCNAYGAFIGYDSWGQGTQVTVSS | high polyreactivity |
| QVQLVESGVCLVQAGGSLRLICAASGNIFYGYAMGWYRQAPGKESELVAAISTGGSTNYADSVKGRFTISRDNAKNTVYLQMNSLKPVDTAVYYCASDDPQQYGVRQLGYDSWGQVTQVTVSS | low polyreactivity |
| QVQLVESGGGLFQAGGSLRLSCAASGYIFVRYAMGWYRQAPGKEREFVAAISSSGGSTRYADSVKGRFTISRDKAKYNVYLQMNSLKPEDTAVYYCAATRVARDGSPMYYWGQGTQVTVSS | high polyreactivity |
| QVQLVESGGGLVQAGGSLRFSCAASGGIFFRNAMVWYRQAPGKEREFVAVISSGGSTYYADSVKGRFTISRDNAKNTVYLQMNSLKPEDTAVYYCAARRKRPGYTVTLHYPYNYWGQGTQVTVSS | high polyreactivity |
| QVQIVESGGGLVQAAVSLPISCPASGSIFGSYAMGWYRQAPGKERELVAAISKSGGSTYYADSVKGRFTISRDYAKNTVNLQMNSLKPEDTEVYYCAARAFLYAYRAYDYWGQGTQVNVSS | high polyreactivity |
| QVQLVESGAGLVQAGGSLRLSCAASGLILGVYTMGWYRQAPGTEREFVASINYGGGSTYYADSVKGRFTISRDNAKNTVYLQMNSLKPEDTAVYYCNARSRWGGTRLYSYDYWGQGTKVTVSS | low polyreactivity |
| LVQLVESGGGLVQAGGSLRLSCAASGRIFPYYMGSYRQAPGKERELVAVKSSGDGTYYADSVKGRFTISRDNAKNTVYFQMNRLKPEDTAVYYCAADAPREYVDHYKYDDDYWGQGTQVTVSS | low polyreactivity |
| QVQLVESGGGLVQAGGSLSLSCAASGFTLRFYTMGWYRQAPGKERELVADITWSGASTYYADSVKGRFTISRDNAKNTVYLQMKSLKPEDTAVYYCNAEDRYWSYSVGAPYNYWGQGTQVTVSS | low polyreactivity |
| QVQLVESGGGLVQAGGSLRLSCAASGRTFYGYGMGWYRQAPGKERELVAGISGRGTRTYYADSVKGRFTISRDNAKNTVYLQMNSLKPEDTAVYYCNAVSIGYYSQSLGLDYWGQGTQVTVSS | high polyreactivity |
| QVQLVESGGGLVQAGGSLRLSCAASGSTFSDYTMGWYRQAPGKERELVAAITTIGGSTYYADSVKGRFTISRDNAKNTVYLQMNSLKPEDTAVYYCAAYYYYPFEYYYWGQGTQVTVSS | low polyreactivity |
| QVQLVESGGGLVQAGGSLRLSCAASGSTFRIYAMGWYRQAPGKERELVARISWNGGRTYYADSVKGRFTISRDNAKNTVYLQMNSLKTEDTAVYYCNALVPPGYDYWGQGTQVTVSS | high polyreactivity |
| QDQLVESGGGLVQAGGSLRVSCAASGSVFLVNAMGWYRQAPGKERELVAIDGSGGSTYADSVKGRFTISRDNAKNTVYLQMNILKPEDTAVYYCAKDQEGPLYDYWGQGTQVTVSS | low polyreactivity |
| QVQLVESGGGLVQAGGSLRLSCAASGRIFHRYAMGWYRQAPGKERELVAAITRGGSTNYADSVKGRFTISRDNAKNTVYLQMNSLKPEDTAVYYCNADVYAWYLSHRYDYWGQGTQVTVSS | low polyreactivity |
| QVQLVESGGGLVQAGGSLRLSCAASGLTFYWYVMGWYRQAPGKERELVAAITGGGSSTYYADSVKGRFTISRDNAKNTVYLQMNSLKPEDTAVYYCAADYRGGIRYYRGAAYNYWGQGTQVTVSS | high polyreactivity |
| QVQLVESGGGLVQAGGSLRLSCAASGSIFYVYAMGWYRQAPGKERELVASINKSGGSTYYADSVKGRFTISRDNAKNTVYLQMNSLKPEDTAVYYCAARTGWPRVGFQYPAHVGFDYWGQGTQVTVSS | low polyreactivity |
| QVQLVESGGALVQAGGSLRLSCAASARTFIQNGMGWNRQEPGKERELVAAISYRGGTTSYADSVQGRFTISRDNAKNTVYLQMNSLKPEVTAVYYCAKRYTYYSYDYWGQGTQVTVSS | high polyreactivity |
| QVQLVESGGGLVQAGGSLRLSCAASGSIFTYYAMGWYRQAPGKERELVAAITRRGGSTYYADSVKGRFTISRDNAKNTVYLQMNSLKPEDTAVYYCNAFTYWASYWDYDYWGQGTQVTVSS | low polyreactivity |
| QVHLVESGGGLVPAGGSLRLSCPASGSIFYEYAMGWYRQPPGKERELVAAITVTSGSTYYADSVKGRFTISRDNAKNTVYLQMNSLKPEDTAVYYCASRIYHTYRFYYWGQGTQVTVSS | low polyreactivity |
| QVQLVESGGGLVQAGGSLRLSCAASGRIIPSYAMGWYRQAPGKERELVAAISDSDGSTYYADSVKGRFTISRDNAKNTVYLQMNSLKPEDTAVYYCAAEGSYPAYDYWGQGTQVTVSS | low polyreactivity |
